The record followed here is paper PMC3234246.

Assay [1] deals with cyclophilin A (CypA), human (UniProt P62937). Briefly: ITC; recombinant CypA or Nup358Cyp against recombinant CA^NTD, without cyclosporine; done as described in ref. 25. On the technique in general: ITC needs no label: the signal is the heat of the interaction.
Assay [2] has as its target Nup358/RanBP2 cyclophilin domain (Nup358Cyp), human (human). Described as above.
Assay [3] deals with cyclophilin A (CypA), human (UniProt P62937). In words: ITC.

One may read the Kd as the constant that tells how readily two partners part at equilibrium.

Sequence of cyclophilin A (CypA), human (P62937 whole entry, the tested form may be a part): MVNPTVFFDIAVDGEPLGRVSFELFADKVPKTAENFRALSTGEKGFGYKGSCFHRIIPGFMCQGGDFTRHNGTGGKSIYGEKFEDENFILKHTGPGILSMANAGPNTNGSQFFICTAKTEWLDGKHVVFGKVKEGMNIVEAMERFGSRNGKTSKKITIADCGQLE

On to “HIV-1 capsid N-terminal domain (CA^NTD) mutant N57A (domain or fragment)”, for which the Kd stood at 7 µM in assay [1] and 55 µM in assay [2].
Regarding “HIV-1 NL4.3 capsid N-terminal domain (CA^NTD), wild type N74D”, in assay [3], the other: stoichiometry N was determined as 0.8, the other: ΔH was -9.8 kcal/mol and the other: ΔS ((cal/mol)/deg) is -10.3.
“HIV-1 capsid N-terminal domain (CA^NTD) mutant N74D (domain or fragment)”: in assay [2], the Kd amounted to 95 µM.
On to “HIV-1 NL4.3 capsid N-terminal domain (CA^NTD), wild type (domain or fragment)”, for which the Kd in assay [1] is 7 µM; in assay [2] it was 16 µM.
For “HIV-1 NL4.3 capsid N-terminal domain (CA^NTD), wild type P90A”, in assay [3], the Kd was 46 µM, the other: stoichiometry N is 0.8, the other: ΔH is -2.84 kcal/mol and the other: ΔS ((cal/mol)/deg) turned out to be 9.8.
